Test results reported in article PMC8448962 (Neuron, 2021).

Target: the molecule itself
Assay: crystal structure

B1: Human TRAAK A198E, crystallisation construct (C-terminally truncated, N104Q/N108Q) (domain or fragment)
chain: MTTAPQEPPARPLQAGSGAGPAPGRAMRSTTLLALLALVLLYLVSGALVFRALEQPHEQQAQRELGEVREKFLRAHPCVSDQELGLLIKEVADALGGGADPETQSTSQSSHSAWDLGSAFFFSGTIITTIGYGNVALRTDAGRLFCIFYALVGIPLFGILLAGVGDRLGSSLRHGIGHIEAIFLKWHVPPELVRVLSEMLFLLIGCLLFVLTPTFVFCYMEDWSKLEAIYFVIVTLTTVGFGDYVAGADPRQDSPAYQPLVWFWILLGLAYFASVLTTIGNWLRVVSRRTRAEMGGLTAQSNSLEVLFQ
- stoichiometry N: 2
